Numbering of substitutions follows the chain as printed.

The target of test [1] is T1, V459A (Homo sapiens, UniProt P78325).
T1 construct: expressed on HEK293 cells; also called human ADAM8 point mutant V459A
T1 sequence (ADAM8, looked up): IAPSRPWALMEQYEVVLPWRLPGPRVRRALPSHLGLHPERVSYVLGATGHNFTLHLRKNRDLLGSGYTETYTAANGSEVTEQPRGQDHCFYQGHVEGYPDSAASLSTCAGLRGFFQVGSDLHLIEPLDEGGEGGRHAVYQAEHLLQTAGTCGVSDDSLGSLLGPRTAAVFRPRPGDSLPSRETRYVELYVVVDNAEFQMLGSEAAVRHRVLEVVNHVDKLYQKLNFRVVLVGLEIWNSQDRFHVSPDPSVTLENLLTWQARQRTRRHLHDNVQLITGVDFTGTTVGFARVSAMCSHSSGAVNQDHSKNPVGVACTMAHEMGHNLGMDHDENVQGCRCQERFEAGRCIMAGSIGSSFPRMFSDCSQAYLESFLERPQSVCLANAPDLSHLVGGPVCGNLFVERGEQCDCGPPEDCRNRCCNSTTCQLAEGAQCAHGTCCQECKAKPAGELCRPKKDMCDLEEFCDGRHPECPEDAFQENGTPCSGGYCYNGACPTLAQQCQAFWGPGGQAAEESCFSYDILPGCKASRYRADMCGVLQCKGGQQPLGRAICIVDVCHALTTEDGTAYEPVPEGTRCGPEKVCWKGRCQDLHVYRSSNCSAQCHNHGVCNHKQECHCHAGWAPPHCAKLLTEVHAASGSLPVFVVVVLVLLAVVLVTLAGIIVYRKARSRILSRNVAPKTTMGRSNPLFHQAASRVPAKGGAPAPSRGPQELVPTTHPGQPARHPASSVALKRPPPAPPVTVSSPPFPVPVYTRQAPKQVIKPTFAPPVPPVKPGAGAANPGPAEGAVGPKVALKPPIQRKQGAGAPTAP
The test can be described thus: high-throughput flow cytometry, HEK293 cells with mutant ADAM8, high stringency; range in parentheses; dotted box. How it is done:
(§1) A variety of experimental parameters were optimized for high-throughput flow cytometry including blocking buffer, and primary and secondary antibody concentrations, to identify the optimal conditions for screening. Through these studies ADP2 and ADP13 were determined to be high affinity binding antibodies.
(§2) Thus, for these studies antigen-binding fragments (Fabs) of ADP2 and ADP13, which bind with lower affinity than the full antibody, were generated. In addition, higher binding stringency conditions were tested, such as increased pH, salinity, and temperature, and/or increased washing, to weaken binding sufficiently to allow identification of critical binding residues in flow cytometry. The final experimental flow cytometry conditions were: primary antibody incubation with ADP2 Fab (0.50 μg/ml), ADP13 Fab (5.00 μg/ml) and Control Ab (0.16 μg/ml) for 60 minutes in flow cytometry buffer containing 10% goat serum in PBS (Ca²⁺ and Mg²⁺ free). […] Samples were washed three times after primary antibody incubation and twice after secondary antibody incubation with PBS (Ca²⁺ and Mg′ free). Next, HEK293 cells expressing WT or mutated ADAM8 proteins or EV DNA were incubated with ADP2 or ADP13 Fabs or Control Ab at their optimal concentrations. Fab binding was detected using Alexa Fluor 488-conjugated secondary antibodies and mean cellular fluorescence determined using the Intellicyt iQue flow cytometry platform. […] This counter-screen strategy facilitates the exclusion of mutants that are locally misfolded or that have an expression defect. Binding of each test Fab to each mutant clone in the alanine scanning library was determined, in duplicate, by high-throughput flow cytometry.

In test [2] the target is T2, G445A (Homo sapiens, UniProt P78325).
T2 construct: expressed on HEK293 cells; also called human ADAM8 point mutant G445A
T2 sequence (ADAM8, looked up): T1 sequence (ADAM8, looked up) with G429A, A443V
Described as above. How it is done: as §1, §2

B1: ADP13 Fab (Fab, V domains shown)
VH: EVQLQQSGPEMVKPGTSVKISCKASGYTFTDYYINWVKQSHGKSLEWIGDISPNIGGATYNPKFKGKAILTVDKSARTAYMELRSLTSEDSAVYCCTRGGSSYPYFYAMDYWGQGTSVTVSS
VL: DIVMSQSPSSLAVSVGEKVTMSCKSSQSLLYSSNQKKYLAWYQQKPGQSPKLLIYWASTRESGVPDRFTGSGSGTDFTLTISSVKAEDLAVYYCQQFYSYPYTFGGGTKLEINR
Take B1: the “Binding Reactivity (% WT)” value in test [1] turned out to be 27.8 % WT.

B2: ADP2 Fab (Fab, V domains shown)
VH: EVKLVESGGGLVQPGGSLSLSCAASGFSFPDYYMSWVRQPPGKALEWLGFIRDSANGYTTEYIASVKGRFTFSRDNSQSILYLQMNALRAEDSATYYCARYSRYYGMDYWGQGTSVTVSS
VL: SIVMTQTPKILLVSAGDRVTITCKASQTVNYDVAWYQQKPGQSPKPVIYFASNRYTGVPDRFTGSGFGTDFTFTISTVQAEDLAVYFCQQDYSAPWTFGGGTKLEIK
Turning to B2, in test [2], the “Binding Reactivity (% WT)” value is 30.7 % WT.
